Patent US20140377288A1 (University of Texas, published 2014)

Molecular target: T1, GST-hEphA5 (1-72 aa) (human, UniProt P54756 304-375)
T1 construct: also called first 72 amino acids of the region 304-467 of the hEphA5 protein fused to GST; not shown: Glutathione S-transferase (GST) fusion partner
T1 sequence: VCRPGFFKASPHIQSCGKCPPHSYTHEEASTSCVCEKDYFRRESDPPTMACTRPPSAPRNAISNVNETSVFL
Experiment: ELISA with decreasing amount of 11C12 on GST fusion proteins
Experimental: FIG. 10: Further 11C12 epitope mapping on human EphA5. ELISA assays were performed with decreasing amount of 11C12 antibody in the presence of various portions of human EphA5 fused to GST. GST fusion proteins included EphA5 sequence from the regions corresponding to amino acids 304-467 (SEQ ID NO:3) and are numbered relative to this region. GST fusion proteins included GST-hEphA5 (1-24 aa) (SEQ ID NO:4); GST-hEphA5 (1-48 aa) (SEQ ID NO:5); GST-hEphA5 (1-72 aa) (SEQ ID NO:6); GST-hEphA5 (1-95 aa) (SEQ ID NO:7); GST-hEphA5 (1-120 aa) (SEQ ID NO:8); GST-hEphA5 (1-144 aa) (SEQ ID NO:9); and GST-hEphA5 (1-164 aa) (SEQ ID NO:10).
Epitope mapping was performed with protein fragments of human EphA5. […] This region is provided as SEQ ID NO:3. Further epitope mapping was performed by ELISA using fusion proteins including EphA5 sequences within the 304-467 region (FIG. 10).

binding result: binds
B1: 11C12 monoclonal anti-EphA5 antibody (antibody, mouse IgG1, V domains shown)
VH: EVTLKESGGGLVQPGGSRKLSCAASGFTFSTFGIHWVRQAPEKGLEWVAYISGASTTIYYADTVKGRFTISRDNPKNTLFLQMTSLRSEDTAMYYCARYGTSFPYGLDYWGQGTSVTVSS
VL: DIVMTQSPGSLAVSLGQRATISCKASQSVDYDGDSYMNWYQQKPGQPPKLLIYGASNLESGIPARFSGSGSGTDFTLNIHPVEEEDAASYYCQQSNEDPFTFGSGTKLEIK
notes: Murine IgG1 monoclonal antibody from a hybridoma; also called monoclonal antibody 11C12; 11C12 antibody
